Results taken from patent US5789163, “Enzyme linked oligonucleotide assays (ELONAS)” (NeXstar Pharmaceuticals, Inc.).

Key:
[1] = molecular target: hCG (human chorionic gonadotropin) (Homo sapiens, UniProt P01215;P0DN86 P01215:25-116,P0DN86:21-165); test: ELONA; RNA as capture molecule in TEM buffer; detection down to 200 mIU (340 pM); conditions: tags: Vitro Diagnostics, 14,000 IU/mg, Mr 42,000; label: 5'-biotin (GDP-beta-S, iodoacetyl-LC-biotin)
[2] = molecular target: hTSH (human thyroid stimulating hormone) (Homo sapiens, UniProt P01215;P01222 P01215:25-116,P01222:21-132); test: ELONA; RNA as capture molecule in TEM buffer; signals analogous to commercial ELISA; conditions: tags: Becton Dickinson, 9 IU/mg, Mr 27,700; label: 5'-biotin (GDP-beta-S, iodoacetyl-LC-biotin)
[3] = molecular target: VEGF (vascular endothelial growth factor) (Homo sapiens, UniProt P15692-4 P15692-4:27-191); test: ELONA; 95% CI 0.19-0.33 nM, N=6; VEGF titration in sandwich with capture antibody, ligand 400 nM as detector, room temperature; 0.236 nM in Superblock/TBS-Tween variant; conditions: tags: R&D Systems recombinant human VEGF; chain copies: 2; label: 3'-biotin
Chain of VEGF (vascular endothelial growth factor) (P15692 other isoform, or with tags, fused parts or gaps): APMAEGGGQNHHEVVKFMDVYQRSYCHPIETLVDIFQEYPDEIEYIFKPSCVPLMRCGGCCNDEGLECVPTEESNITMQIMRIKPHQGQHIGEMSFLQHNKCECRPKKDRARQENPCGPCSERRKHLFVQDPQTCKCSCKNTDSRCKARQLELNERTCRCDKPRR

Chain of hCG (human chorionic gonadotropin) (P01215 25-116, chain 1 of 2, other chains not shown): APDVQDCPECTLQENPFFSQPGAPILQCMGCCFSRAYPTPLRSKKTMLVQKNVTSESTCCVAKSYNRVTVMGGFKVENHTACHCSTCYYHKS
Chain of hTSH (human thyroid stimulating hormone) (P01215 25-116, chain 1 of 2): as the sequence (P01215 25-116, chain 1 of 2, other chains not shown) above
Chain of hTSH (human thyroid stimulating hormone) (P01222 21-132, chain 2 of 2): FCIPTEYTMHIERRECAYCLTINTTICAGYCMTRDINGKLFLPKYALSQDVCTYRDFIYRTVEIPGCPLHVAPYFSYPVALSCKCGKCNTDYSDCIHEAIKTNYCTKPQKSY

B1: H-42 (ssRNA)
RNA: GGGAGGACGAUGCGGACAAGGGCCUGAGUGUGGAGGGCACGUGGAGGGGACUGGCCAGACGACUCGCCCGA
modifications: 2'-NH2 on all C and U
B1: binds [1].

B2: T-15 (ssRNA)
RNA: GGGAGGACGAUGCGGAUGUUGGCAGCAGGGUCCGACGGCGUAACCUUGCCAGCUGCAGACGACUCGCCCGA
modifications: 2'-NH2 on all C and U
B2: binds [2].

ACCCUGAUGGUAGACGCCGGG (ssRNA, 2'-NH2 pyrimidines) [VEGF-NeXamer] showed an EC50 [3] of 0.25 nM.
